Target: recombinant mouse OSM (mouse) (UniProt P53347)
Experiment: cell-based or functional assay

UniProt P53347, sequence (P53347 24-206 limits assumed): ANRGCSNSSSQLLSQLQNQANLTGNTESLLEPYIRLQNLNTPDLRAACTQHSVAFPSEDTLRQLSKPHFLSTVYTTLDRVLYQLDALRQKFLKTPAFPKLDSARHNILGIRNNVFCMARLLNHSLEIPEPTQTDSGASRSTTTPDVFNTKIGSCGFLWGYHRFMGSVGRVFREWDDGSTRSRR

molar ratio of neutralizing agent required for 50% neutralization (SOCS3 expression in mouse colonic fibroblasts treated with 10 ng/ml recombinant mouse OSM, 2 hours) (molar ratio (neutralizing agent:OSM)): 1.7
Substance: O-RFP (recombinant murine OSM receptor fusion protein) (from UniProt O70458 24-426; Q00560 123-322) (Fc fusion)
